The data set in a line: label from the status in PepcDB records.
As for “MGVKVATSSTFHQWVAHPIVHHSSSLSQTLASSAVSSPSRRRIIGNDGRSSLSCRSVMQSQRLNPSSPFGTSSTNLRHSKSCELWESTKRPKTQLIRRAFSANVDPFSEEEFAKKMQELTLKFQVSNEEEDNESDTRIDDYTRKMDIVGSHNNFRSDSMEPPWPEMVQMSNIERKANSVDLPLSLRIIKRKLQMEEGVLNQVGESACCSVKKAFSSMVFMIRELQSFTLHMRELLLFEDLQGILHRVRKEMQASFVWLFQQVFSATPTLMVSVMILLANFTVYSIESNSALAAAVSPPTTLSFSFETTAEISETQETNQKFDSSMVKTFSVSSPYGKTSFVGGGGGNNIPPPVQSGTDGDGSDQFRKSQFSSSSLGATSADSDVSVSGQEEIRLWNSILEETAKMETLDHETMKGMVSPVEARLEAEESMDYFKTELLYQTGLSQEPGNVLLLANYAQFLYLIIHDYDRAEKYFKRAAKAEPADAEALNKYATFLWRARNDIWRAEETYLEAISADPTNSVYSANYAHFLWNTGGDETCFPLDAPSQQNNTT”, the protein production result is given as “failed”.

Turning to “MQGAGRLMQPRPDSAFVHDVRVTWGDCDPAKIAYTGHLPRFALEAIDAWWSEYHGPGGWYHLELDTNVGTPFVRLEMDFKSPVTPRHILKCHTWPTRLGTKSITFRVDGVQDGVTCFVGAFTCVFTIADQFKSQPAPDHLRALIEPHIPA”, the protein production entry is reported as “not failed”.

Turning to “MMAPNQFSSGDVIADRRADYARMLAESGDYPAAAELMEQALELAPRWTAGWFRFGEYHEKAGETAKAVAAYEKVAELDAEGLFAAELKLAVLGAAETPEQPPSRYVEGLFDDYADRFETSLVEKLDYSVPQKLAELIGKAATGDAFDTIVDIGCGTGLLGIEIRSLAKRLEGFDISQNMLAKADEKSLYDHLGQADLSLDAEASGLFTPVLTQHRADLVAAADVMMYLGSLETVMPLVSALLKPSGFFAFSVEDAGDEQGFVLRESLRYAHSKSYVIDLLERSGFSPMEIRKTTIRKDAGKPLSGILFLARAKA”, the protein production result is “failed”.

As to “MFLHSVNLWNLAFYVFMVFLATLGLWDVFFGFEENKCSMSYMFEYPEYQKIELPKKLAKRYPAYELYLYGEGSYAEEHKILPLTGIPVLFLPGNAGSYKQVRSIGSIALRKAEDIDFKYHFDFFSVNFNEELVALYGGSLQKQTKFVHECIKTILKLYKGQEFAPKSVAIIGHSMGGLVARALLTLKNFKHDLINLLITQATPHVAPVMPLDRFITDFYTTVNNYWILNARHINLTTLSVAGGFRDYQVRSGLTFLPKLSHHTSALSVVSSAVPKTWVSTDHLSIVWCKQLQLTTVRAFFDLIDADTKQITQNSKKKLSVLYHHFIRHPSKHFEENPAIISDLTGTSMWVLVKVSKWTYVAYNESEKIYFTFPLENHRKIYTHVYCQSTMLDTNSWIFACINSTSMCLQGVDLSWKAELLPTIKYLTLRLQDYPSLSHLVVYVPSVRGSKFVVDCEFFKKEKRYIQLPVTHLFSFGLSSRKVVLNTNGLYYNLELLNFGQIYQAFKINVVSKCSAVKEEITSIYRLHIPWSYEDSLTIAQAPSSTEISLKLHIAQPENNTHVALFKMYTSSDCRYEVTVKTSFSQILGQVVRFHGGALPAYVVSNILLAYRGQLYSLFSTGCCLEYATMLDKEAKPYKVDPFVIIIKFLLGYKWFKELWDVLLLPELDAVILTCQSMCFPLISLILFLFGTCTAYWSGLLSSASVRLLSSLWLALKRPSELPKDIKMISPDLPFLTIVLIIVSWTTCGALAILLSYLYYVFKVVHLQASLTTFKNSQPVNPKHSRRSEKKSNHHKDSSIHHLRLSANDAEDSLRMHSTVINLLTWIVLLSMPSLIYWLKNLRYYFKLNPDPCKPLAFILIPTMAILGNTYTVSIKSSKLLKTTSQFPLPLAVGVIAFGSAHLYRLPCFVFIPLLLHALCNFM”, the protein production entry is “failed”.

Turning to “MQDSFFSFLSSPINLLFLFVAFFLLFVTPWLWNIVNSAHNIHKLLDPLGIKKKENSLPVTGLLFLPLLLIIIFIEWFWPLANITLFPILASPYIKFNIIAVISVVILLILIQCDKKKSMELWVLAYAAVLYLLYLIIIMATVVVGMNAFPASHYIFAPESSMTINRTIIYGLLIAHLIFIWLTISLKFTWRLLLMILYTLALSFAYFSLIVS”, the protein production result is “failed”.

In the case of “INVRLKFLNDTEELAVARPEDTVGTLKSKYFPGQESQMKLIYQGRLLQDPARTLSSLNITNNCVIHCHRSPPGAAVSGPSAS”, the protein production result was “not failed”.

For “MNMAHTTTSMEIFGSPEQVWQLIGGFNSLPDWLPYIPSSKLTEGGRVRHLANPDGDTIIERLEVFNDKERYYTYSIMNAPFPVTNYLSTIQVKEGTESNTSLVEWSGTFTPVEVSDEEAINLFHGIYSDGLKALQQAFLDLEHHHHHH”, the protein production result is listed as “not failed”.

For “MAGIKVFGHPASTSTRRVLIALHEKNLDFELVHVELKDGEHKKEPFLSRNPFGQVPAFEDGDLKLFESRAITQYIAHRYENQGTNLLPADSKNIAQYAIMSIGIQVEAHQFDPVASKLAWEQVFKFNYGLNTDQAVVAEEEAKLAKVLDVYEARLKEFKYLAGETFTLTDLHHIPVIQYLLGTPTKKLFTERPRVNEWVAEITKRPASEKVL”, the protein production entry is recorded as “failed”.

Take “MPEVRAERYIPAPPERVYRLAKDLEGLKPYLKEVESLEVVAREGARTRSRWVAVAMGKKVRWLEEEEWDDENLRNRFFSPEGDFDRYEGTWVFLPEGEGTRVVLTLTYELTIPIFGGLLRKLVQKLMQENVESLLKGLEERVLAASS”: the protein production entry is given as “not failed”.

On to “MTIGPLALVISLSQQMCVYLVVAYLLSKTPLFIPLVHVTIRLPHKAACYAIFSLFCIMGTYFGLRIDDSIANTRAIGAVLGGMLGGPSVGLAVGLTGGLHRYSMGGFTALACAISTTAEGLIGGLVHRYLVSRGQTGKLFQPLVVGLVTLFAEVCQMLIIILVARPAVNAVHLVETIALPMLVANSVGAAMFMTILLDRRTMFETQSSVFSAKALKIAARAEGALRSGFNRENSMRVARIIYEETGVGAVAITDRDKILAFIGIGDDHHKPGMAVTSLQTLESIRENRVMYADGNEVAYQCSISPTCPLGAALVIPLVDEGEQVIGTIKLYEPKTRLFSTINRTLGEGVARLLSTQILAGRYEQQRQLLAQSEIKLLHAQVNPHFLFNALNTLSAVIRLDPDHARHLVQSLSTFFRKNLKRTSEQVTLNDEVEQVSAYLEIELARFGDRLSVDFNVPADLGTATLPTFSLQPLVENAIKHGTAQLLGDGRIGVSAERQGGDLVVRVEDNAGLYERRPGGDGLGMNLVDRRIRARYGQGYGLSVECERDVVTRVILRVPFDPSPAGVASPAFEKVGP”, for which the protein production result is on record as “failed”.

For “MNAKPKDTVIANARIVLADRVIEQGWLALANGRVAEIGEGRAPAGAEDAGGDLIMPGLIELHTDHLEAHYVPRPKVFWNPVAAVVSYDGQLATSGITTVFDSLRVWREDGAEEVDGRAGVLAAAITTARDADLLRADHFLHLRCEIPMPSVVEEAKELIDRPDVKLMSLMDHTPGQRQFRDEGKLRDYYRGKNGGKTDAQLDELFAKRFEYQKAYAATNMREIVALAHQYNIPLASHDDTTEENVADAVRDRVSVAEFPTTLEAARGLHQAGIDILMGAPNVVRGGSHSGNIAAVDLAREGLLDILSSDYIPSSLLMAALQLPEHVPAISLPAAVRTVTKAPAEAVGLSDRGEIAVGKRADLIRVHIAGSVPVVRSVWREGGRVA”, the protein production entry is “failed”.

Consider “MQSAKEKISDMASTAKEKLNIGGAKAQGHAEKTMARTKKEKKLAQEREKSKEAQAKADLHQSKAEHAADAQVHGHHLPGHSTYPTRATGANYPPGQI”, for which the protein production result was “failed”.

“MDHGVVLLSDDQGLQWRQASSVPLSTPLTGVSFVDAKRGWAVGHWGAILITTDGGESWQVQRLATEEDRPLFAVHFFNARQGVAVGLWSLVLTTEDGGQTWSEQPLQAPPGAKRADLNLMGLFADSRGTLYATAEHGQVLHSEDQGKNWRYLDTGYEGTLWAGAVLADGRLLLGGQRGTLLQGSADGKGFHRVPTQSKGSVTCVAVAGSRVLAVGLDGLSVQSSDGGHSFQETQTADGLSLTAALFNAEGVPVLFSRRGVMPYQELEHHHHHH”: the protein production entry is “failed”.

Values taken from a protein production outcome set (Wang et al. 2014).
